In patent publication US20210079080A1 (Hoffmann-La Roche, published 2021):

Experiments:
[1] = molecular target: T1, VEGF-121-His (inhouse production) (human, UniProt P15692 207-395); experiment: SPR (Biacore), hVEGF-A121 captured by anti-His antibody, Fab injected, 25° C
T1 construct: His-tagged human VEGF-A121 used in the ELISAs and (captured by an anti-His antibody) in SPR; also called hVEGF-A121; his VEGF; not shown: His tag
T1 sequence: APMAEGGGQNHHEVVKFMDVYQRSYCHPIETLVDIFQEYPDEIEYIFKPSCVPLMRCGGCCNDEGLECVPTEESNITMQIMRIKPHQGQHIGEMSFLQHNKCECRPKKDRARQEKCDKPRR
Description: (§1) The surface was regenerated by injecting 10 mM Glycine pH 1.5 for 60s. […] Rate constants were calculated using the Langmuir 1:1 binding model within the Biacore® Evaluation software.
(§2) The affinity of the antibodies was determined by SPR using the same methods as described in Example 2. All Fab fragments of antibodies of the invention as listed in table 1 and table 5 were tested.

[2] = molecular target: T1, VEGF-121-His (inhouse production); experiment: inhibition ELISA: antibody titrated against 0.7 nM VEGF-121-His; blocked partner plate-bound biotinylated VEGF-R2; anti-His POD readout
[3] = molecular target: T1, VEGF-121-His (inhouse production); experiment: inhibition ELISA: antibody titrated against 0.7 nM VEGF-121-His; blocked partner plate-bound biotinylated VEGF-R1; anti-His POD readout
[4] = molecular target: T1, VEGF-121-His (inhouse production); experiment: SPR (Biacore), hVEGF-A121 captured by anti-His antibody, Fab injected, 37° C
Description: as §1, §2

[5] = molecular target: T1, VEGF-121-His (inhouse production); experiment: Biacore, Fab stressed 2 w/40° C./pH 6.0
Description: (§3) Antibody samples were formulated in 20 mM His/HisCl, 140 mM NaCl, pH 6.0, and were split into three aliquots: one aliquot was re-buffered into PBS, respectively, and two aliquots were kept in the original formulation. The PBS aliquot and one His/HisCl aliquot were incubated for 2 weeks (2 w) at 40° C. (His/NaCl) or 37° C. (PBS) in 1 mg/ml, the PBS sample was incubated further for total 4 weeks (4 w). The third control aliquot sample was stored at −80° C.

human VEGF-A121 = molecular target: T2, human VEGF-A121 (human, UniProt P15692 207-395); experiment: cell-based or functional assay
T2 sequence: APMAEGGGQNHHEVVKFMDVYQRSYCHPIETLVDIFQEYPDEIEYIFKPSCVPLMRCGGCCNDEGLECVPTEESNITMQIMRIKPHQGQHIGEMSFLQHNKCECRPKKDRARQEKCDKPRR

[6] = molecular target: T1, VEGF-121-His (inhouse production); experiment: inhibition ELISA: antibody titrated against 0.4 nM VEGF-121-His; blocked partner plate-bound biotinylated VEGF-R2; anti-His POD readout
[7] = molecular target: T1, VEGF-121-His (inhouse production); experiment: Biacore, Fab stressed 4 w/37° C./pH 7.4
Description: as §3

[8] = molecular target: T1, VEGF-121-His (inhouse production); experiment: SPR (Biacore), hVEGF-A121 captured by anti-His antibody, Fab injected, 37° C; remark: listed apart in the source
Description: as §1
(§4) The affinity of the antibodies was determined by SPR using the same methods as described in Example 2. All Fab fragments as listed in table 1 and table 2 were tested.

[9] = molecular target: T1, VEGF-121-His (inhouse production); experiment: inhibition ELISA: antibody titrated against 0.7 nM VEGF-121-His; blocked partner plate-bound biotinylated VEGF-R2; anti-His POD readout; remark: listed apart in the source
Description: (§5) Plates were incubated for 1 h at room temperature. […] Plates were incubated for 1 h at room temperature. […] After washing 3 times with 90 μl/well PB ST-buffer, 25 μl/well detection antibody (anti His POD, Bethyl, #A190-114P, 1:12000) in 1×OSEP was added. After incubation for 1 h at room temperature plates were washed 3 times with 90 μl PBST-buffer. 25 μl TMB (Roche, #11 835 033 001) was added to all wells simultaneously. After 10 min incubation at room temperature, signals were detected at 370 nm/492 nm on a Tecan Safire 2 Reader.

[10] = molecular target: T1, VEGF-121-His (inhouse production); experiment: as above; remark: listed apart in the source
Description: as §5

[11] = molecular target: T1, VEGF-121-His (inhouse production); experiment: direct ELISA on plate-coated VEGF-121-His
Description: After washing 3 times with 90 μl/well PBST-buffer (bidest water, 10×PBS Roche #11666789001+0.1% Tween® 20) blocking buffer (bidest water, 10×PBS Roche #11666789001+2% Bovine Serum Albumin Fraction V, fatty acid free, Roche, #10735078001+0.05% Tween® 20) was added 90 μl/well and incubated for 1 h at room temperature. […] After incubation for 1 h at room temperature, plates were again washed 3 times with 90 μl/well PBST-buffer. […] After washing 3 times with 90 μl A PBST-buffer, 25 μl TMB (Roche, #11 835 033 001) was added to each well. After 3 min incubation at RT, signals were detected at 370 nm/492 nm on a Tecan Safire 2 Reader.

[12] = molecular target: T1, VEGF-121-His (inhouse production); experiment: SPR (Biacore), hVEGF-A121 captured by anti-His antibody, Fab injected, 25° C; remark: listed apart in the source
Description: as §1, §4

[13] = molecular target: T1, VEGF-121-His (inhouse production); experiment: Biacore, Fab stressed 2 w/37° C./pH 7.4
Description: as §3

Binder	Kd [1] [pM]	IC50 (read off the curve) [2] [pM]	IC50 (read off the curve) [3] [pM]	Kd [4] [pM]	VEGF-binding activity after stress (relative active concentration, normalized to unstressed aliquot) [5]	IC50 in reporter gene assay (HEK293-NFAT-RE-Luc2P/KDR cells, luminescence, 25 ng/ml VEGF-A121) (human VEGF-A121) [pM]	IC50 (read off the curve) [6] [pM]	VEGF-binding activity after stress (relative active concentration, normalized to unstressed aliquot) [7]	Kd [8] [pM]	IC50 (read off the curve) [9] [pM]	IC50 (read off the curve) [10] [ng/mL]	EC50 (read off the curve) [11] [pM]	Kd [12] [pM]	VEGF-binding activity after stress (relative active concentration, normalized to unstressed aliquot) [13]
HF2-5 Fab fragment (Fab, V domains shown, Prior art antibody disclosed in EP3006465) VH: EVQLVESGGGLVQPGGSLRLSCAASGFMIRSHGMQWVRQAPGKGLEYVAGISSDGSWARHSAAVEGRFTISRDDSKNTAYLQMNSLRAEDTAVYYCARDFSTGYGADSIDAWGQGTLVTVSS VL: DIQMTQSPSSLSASVGDRVTITCSGGSDSAYGYGWYQQKPGKAPKTLIYWDDKRPSGVPSRFSGSRSGTDFTLTISSLQPEDFATYYCGAWEYSGGVGIFGQGTKVEIKR	52	~700	~900	109										
VEGF-0089 Fab fragment (Fab, V domains shown, also called antibody VEGF-0089) VH: EVQLVESGGGLVQPGGSLRLSCAASGFTFTNYAMTWVRQAPGKGLEWVSSIGNGGGIYTYYADSVKGRFTISRDNSKNTLYLQMNSLRAEDTAVYYCAKGDNLFDSWGPGTLVTVSS VL: DIQMTQSPASLSASVGDRVTITCRASQSIYSSLNWYQQKPGKAPKLLIYASTLQSGVPSRFSGSASGTDFTLTISSLQPEDVATYYCQQYQNFPRTFGQGTKLEIKR	143			110	101	590	~200	101	99	1000 to 2000	~10	~200	134	102
